Here are results for three compounds from publication PMC7823558 (Viruses, 2020).

The subject of one assay is T1, gp11.
T1 construct: E. coli BL21(DE3)
The assay is described as follows: coupled pyruvate kinase / lactate dehydrogenase assay, NADH absorbance at […] nm. The class given is biochemical, Lactococcus phage asccphi28. The conditions noted are these: 0.1 µM gp11, 50 mM Tris pH 7.5, 72 mM KCl, 7.2 mM MgSO4, 2 mM PEP, 0.3 mM NADH.

The target in assay [1] is gene product 11 (gp11), DNA packaging ATPase from Lactococcus lactis phage asccφ28 (Lactococcus lactis phage asccφ28). The assay is described as follows: AUC.
For assay [2] the target is unchanged. The assay is described as follows: AUC; sedimentation velocity, data not shown.
Assay [3] has the same target. The assay is described as follows: SEC.

Like-named read-outs stand apart in the source and are kept apart here.

On to `Nc1ncnc2c1ncn2[C@@H]1O[C@H](COP(=O)(O)OP(=O)(O)OP(=O)(O)O)[C@@H](O)[C@H]1O` [ATP], for which, in the assay with gp11 (read-out: ATP), the Km came to 28 µM.

Turning to `Nc1nc2c(ncn2[C@@H]2O[C@H](COP(=O)(O)OP(=O)(O)OP(=O)(O)O)[C@@H](O)[C@H]2O)c(=O)[nH]1` [GTP], in the assay on gp11 (read-out: GTP), the Km stood at 344 µM.

As for “gene product 11 (gp11), DNA packaging ATPase from Lactococcus lactis phage asccφ28 (enzyme)”, the stoichiometry N in assay [1] is 10 monomers; in assay [2], 10 monomers; in assay [3], 4 to 15 copies.

By stoichiometry N is commonly meant the number of molecules, sites or subunits per partner or assembly.
